# T1: recombinant human DLL3 (human, UniProt Q9NYJ7 27-492)
# T1 sequence: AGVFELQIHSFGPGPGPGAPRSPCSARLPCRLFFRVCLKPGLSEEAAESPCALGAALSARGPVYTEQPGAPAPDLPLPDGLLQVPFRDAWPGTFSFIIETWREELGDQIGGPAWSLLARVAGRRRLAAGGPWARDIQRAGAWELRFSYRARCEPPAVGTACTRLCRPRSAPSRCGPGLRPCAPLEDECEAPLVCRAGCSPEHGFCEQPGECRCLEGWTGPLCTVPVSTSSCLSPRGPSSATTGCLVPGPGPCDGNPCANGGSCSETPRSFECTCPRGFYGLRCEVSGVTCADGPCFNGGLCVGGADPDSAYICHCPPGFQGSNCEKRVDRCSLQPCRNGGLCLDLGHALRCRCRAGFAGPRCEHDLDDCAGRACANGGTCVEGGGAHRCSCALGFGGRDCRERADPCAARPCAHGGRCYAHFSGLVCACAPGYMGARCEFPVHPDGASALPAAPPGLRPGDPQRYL
# T2: Cynomolgus DLL3 ECD with Myc-tag on N-terminus and His-tag on C-terminus (cynomolgus)
# T2 construct: also called Myc-cynoDLL3-His; Cyno DLL3
# T2 chain: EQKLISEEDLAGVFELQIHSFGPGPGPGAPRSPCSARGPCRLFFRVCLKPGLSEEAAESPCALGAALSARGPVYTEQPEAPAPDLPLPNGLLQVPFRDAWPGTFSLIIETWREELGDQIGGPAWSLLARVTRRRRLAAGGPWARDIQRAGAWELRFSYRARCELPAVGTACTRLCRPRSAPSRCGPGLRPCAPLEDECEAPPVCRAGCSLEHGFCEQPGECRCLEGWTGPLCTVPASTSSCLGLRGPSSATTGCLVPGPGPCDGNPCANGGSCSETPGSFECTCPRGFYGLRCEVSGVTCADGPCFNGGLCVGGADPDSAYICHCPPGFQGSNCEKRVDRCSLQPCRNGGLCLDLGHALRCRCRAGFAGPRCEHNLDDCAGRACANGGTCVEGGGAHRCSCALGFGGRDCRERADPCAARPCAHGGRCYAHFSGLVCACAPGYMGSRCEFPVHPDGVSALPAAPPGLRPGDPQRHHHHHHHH
# Tests used:
# recombinant human DLL3 = target: T1, recombinant human DLL3; test: SPR Biacore 8K, 37 C, pH 7.4; bispecific captured on anti-human Fc, DLL3 as analyte, 1:1 model
# Protocol: (§1) Binding affinity of anti-DLL3 arm in the anti-DLL3/CD3 antibodies to human or cynomolgus DLL3 at pH 7.4 were assessed at 37 degrees C. using Biacore 8K instrument (GE Healthcare). Anti-human Fc (GE Healthcare) was immobilized onto all flow cells of a CM4 sensor chip using amine coupling kit (GE Healthcare). The bispecific antibodies were captured onto the anti-Fc sensor surfaces, and then recombinant human or cynomolgus DLL3 was injected over the flow cell. All antibodies and analytes were prepared in ACES pH 7.4 containing 20 mM ACES, 150 mM NaCl, 0.05% Tween 20, 0.005% NaN₃. Sensor surface was regenerated each cycle with 3M MgCl₂.
# [1] = target: T2, Cynomolgus DLL3 ECD with Myc-tag on …; test: as above
# Protocol: as §1
# [2] = target: recombinant human CD3eg protein (CD3 epsilon-gamma, heterodimer of CD3 epsilon and CD3 gamma) (human, UniProt P07766 23-126; P09693 23-116); test: SPR Biacore 8K, 37 C, pH 7.4; bispecific captured on anti-human Fc, human CD3eg as analyte, 1:1 model
# recombinant human CD3eg protein (CD3 epsilon-gamma, heterodimer of CD3 epsilon and CD3 gamma), sequence (P07766 23-126 limits assumed, chain 1 of 2): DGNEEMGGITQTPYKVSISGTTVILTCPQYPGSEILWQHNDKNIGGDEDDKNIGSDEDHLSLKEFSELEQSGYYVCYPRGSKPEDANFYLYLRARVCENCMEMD
# recombinant human CD3eg protein (CD3 epsilon-gamma, heterodimer of CD3 epsilon and CD3 gamma), sequence (P09693 23-116 limits assumed, chain 2 of 2): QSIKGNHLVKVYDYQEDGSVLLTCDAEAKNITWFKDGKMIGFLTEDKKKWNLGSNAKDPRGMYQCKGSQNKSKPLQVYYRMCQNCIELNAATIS
# Protocol: as §1, with “of the anti-CD3” for “of anti-DLL3”, “arm of” for “arm in”, “anti-DLL3/CD3 bispecific” for “anti-DLL3/CD3”, “to CD3” for “to human or cynomolgus DLL3”, “7.4 was” for “7.4 were”, “human CD3eg proteins (CD3 epsilon-gamma, heterodimer of CD3 epsilon and CD3 gamma)” for “human or cynomolgus DLL3”
Binder,Kd (recombinant human DLL3) [nM],koff (recombinant human DLL3) [s⁻¹],kon (recombinant human DLL3) [M⁻¹ s⁻¹],Kd [1] [nM],koff [1] [s⁻¹],kon [1] [M⁻¹ s⁻¹],Kd [2] [nM],koff [2] [s⁻¹],kon [2] [M⁻¹ s⁻¹]
"DLA0316/TR01 (bispecific antibody, V domains shown, IgG-type anti-DLL3/CD3 bispecific made by Fab arm exchange) VH 1: QEQLVESGGGLVQPGGSLKLSCKVSGFDFSNYGVSWVRQAPGKGLEWIGYIDPAFGRTYYASWVNGRFTISSHNAQNTLYLQLNSLTAADTATYFCVRVALVVAGVAYYGMDVWGPGTLVTVSS VL 1: ADVVMTQTPASVEAAVGGTVTINCQASQNIYSYLSWYQQKPGQPPKLLIYRTSTLASGVPSRFKGSGSGTQFTLTISDLECADAATYYCQSYYYSSGSSYGAFAFGGGTEVVVK VH 2: QVQLVESGGGVVQPGGSLRLSCAASGFTFSNAWMHWVRQAPGKGLEWVAQIKDKSQNYATYVAESVKGRFTISRADSKNSIYLQMNSLKTEDTAVYYCRYVHYAAGYGVDIWGQGTTVTVSS VL 2: DIVMTQSPLSLPVTPGEPASISCRSSQPLVHSNRNTYLHWYQQKPGQAPRLLIYKVSNRFSGVPDRFSGSGSGTDFTLKISRVEAEDVGVYYCGQGTQVPYTFGQGTKLEIK",0.0353,8.72e-05,2.47e+06,0.0199,4.96e-05,2.49e+06,,,
"D30841AE08/TR01 (bispecific antibody, V domains shown, IgG-type anti-DLL3/CD3 bispecific made by Fab arm exchange) VH 1: QVTLRESGPALVKPTQTLTLTCTFSGFSLSSSYDMGWVRQAPGQGLEWMGTIYTGDYSTDYASWAKGRVTISVDTSKNQFSLKLSSVTAADTAVYYCARHTGYGYFGLWGQGTLVTVSS VL 1: DIQLTQSPSFLSASVGDRVTITCQSTESVYGSDWLSWYQQKPGQPPKLLIYQASNLEIGVPSRFSGSGSGTDFTLTINSLEAEDAATYYCQGYYSGYIYAFGGGTKVEIK VH 2: QVQLVESGGGVVQPGGSLRLSCAASGFTFSNAWMHWVRQAPGKGLEWVAQIKDKSQNYATYVAESVKGRFTISRADSKNSIYLQMNSLKTEDTAVYYCRYVHYAAGYGVDIWGQGTTVTVSS VL 2: DIVMTQSPLSLPVTPGEPASISCRSSQPLVHSNRNTYLHWYQQKPGQAPRLLIYKVSNRFSGVPDRFSGSGSGTDFTLKISRVEAEDVGVYYCGQGTQVPYTFGQGTKLEIK",0.0872,0.000215,2.47e+06,0.0737,0.000191,2.59e+06,,,
"D30841AE11/TR01 (bispecific antibody, V domains shown, IgG-type anti-DLL3/CD3 bispecific made by Fab arm exchange) VH 1: QVTLRESGPALVKPTQTLTLTCTFSGFSLSSSYDMGWVRQAPGQGLEWMGTIYTGDYSTDYASWAKGRVTISVDTSKNQFSLKLSSVTAADTAVYYCARHTGYGYFGLWGQGTLVTVSS VL 1: DIQLTQSPSFLSASVGDRVTITCQSTESVYGSDWLSWYQQKPGQPPKLLIYQASNLEIGVPSRFSGSGSGTDFTLTINSLEAEDAATYYCQGYYSGYSYAFGGGTKVEIK VH 2: QVQLVESGGGVVQPGGSLRLSCAASGFTFSNAWMHWVRQAPGKGLEWVAQIKDKSQNYATYVAESVKGRFTISRADSKNSIYLQMNSLKTEDTAVYYCRYVHYAAGYGVDIWGQGTTVTVSS VL 2: DIVMTQSPLSLPVTPGEPASISCRSSQPLVHSNRNTYLHWYQQKPGQAPRLLIYKVSNRFSGVPDRFSGSGSGTDFTLKISRVEAEDVGVYYCGQGTQVPYTFGQGTKLEIK",0.172,0.000325,1.88e+06,0.142,0.000265,1.86e+06,,,
"DLA0841/TR01 (bispecific antibody, V domains shown, IgG-type anti-DLL3/CD3 bispecific made by Fab arm exchange) VH 1: QEQLVESGGGLVQPEGSLTLTCTASGFSFSSSYDMCWVRQAPGKGPEWIACIYTGDGSTDYASWAKGRFTVSKASSTTVTLQMTSLAVADTATYFCARNSGYGYFGLWGPGTLVTVSS VL 1: QVLTQTPSPVSAAVGGTVTISCQSTESVYGSDWLSWYQQKPGQPPKVLIYQASNLEIGVPSRFKGSGSGTQFTLTISGAQCDDAATYYCQGYYSGYIYAFGGGTEVVVK VH 2: QVQLVESGGGVVQPGGSLRLSCAASGFTFSNAWMHWVRQAPGKGLEWVAQIKDKSQNYATYVAESVKGRFTISRADSKNSIYLQMNSLKTEDTAVYYCRYVHYAAGYGVDIWGQGTTVTVSS VL 2: DIVMTQSPLSLPVTPGEPASISCRSSQPLVHSNRNTYLHWYQQKPGQAPRLLIYKVSNRFSGVPDRFSGSGSGTDFTLKISRVEAEDVGVYYCGQGTQVPYTFGQGTKLEIK",0.0639,0.000247,3.87e+06,0.0621,0.000238,3.83e+06,,,
"D30316AE03/AN121 (bispecific antibody, V domains shown, IgG-type anti-DLL3/CD3 bispecific made by Fab arm exchange) VH 1: EVQLVESGGGLVQPGGSLRLSCAASGFTFSNYGVSWVRQAPGQGLEWMGYIDIAFGRTYYASWVTGRITINPDTSKNQFSLQLNSVTPEDTAVYYCARVALVVAGVAYYGMDVWGQGTLVTVSS VL 1: DIVMTQSPDSLAVSLGERATINCQASQNIYSYLSWYQQKPGKAPKLLIYRTSTLASGVPDRFSGSGSGTDFTLKISRVEAEDVGVYYCQSYYYSSGSSYGAFAFGQGTKVEIK VH 2: QVQLVESGGGLVQPGRSLRLSCAASGFTFSNAWMHWVRQAPGKGLEWVAQIKDRANSYNTYYAESVKGRFTISRDDSKNSIYLQMNSLKTEDTAVYYCRYVHYTTYAGSSFSYGVDAWGQGTTVTVSS VL 2: DIVMTQSPLSLPVTPGEPASISCRSSQPLVHSNRNTYLHWYQQKPGQAPRLLIYKVSNRFSGVPDRFSGSGSGTDFTLKISRVEAEDVGVYYCGQGTQVPYTFGQGTKLEIK",,,,,,,7.55,0.000744,98600
"D30316AE03/AN104 (bispecific antibody, V domains shown, IgG-type anti-DLL3/CD3 bispecific made by Fab arm exchange) VH 1: EVQLVESGGGLVQPGGSLRLSCAASGFTFSNYGVSWVRQAPGQGLEWMGYIDIAFGRTYYASWVTGRITINPDTSKNQFSLQLNSVTPEDTAVYYCARVALVVAGVAYYGMDVWGQGTLVTVSS VL 1: DIVMTQSPDSLAVSLGERATINCQASQNIYSYLSWYQQKPGKAPKLLIYRTSTLASGVPDRFSGSGSGTDFTLKISRVEAEDVGVYYCQSYYYSSGSSYGAFAFGQGTKVEIK VH 2: QVQLVESGGGLVQPGRSLRLSCAASGFTFSNAWMHWVRQAPGKGLEWVAQIKDRQNGYNTYYAESVKGRFTISRDDSKNSIYLQMNSLKTEDTAVYYCRYVHYTTTYGSYYQFGVDAWGQGTTVTVSS VL 2: DIVMTQSPLSLPVTPGEPASISCRSSQPLVHSNRNTYLHWYQQKPGQAPRLLIYKVSNRFSGVPDRFSGSGSGTDFTLKISRVEAEDVGVYYCGQGTQVPYTFGQGTKLEIK",,,,,,,37.3,0.00266,71400
"D30316AE03/AN119 (bispecific antibody, V domains shown, IgG-type anti-DLL3/CD3 bispecific made by Fab arm exchange) VH 1: EVQLVESGGGLVQPGGSLRLSCAASGFTFSNYGVSWVRQAPGQGLEWMGYIDIAFGRTYYASWVTGRITINPDTSKNQFSLQLNSVTPEDTAVYYCARVALVVAGVAYYGMDVWGQGTLVTVSS VL 1: DIVMTQSPDSLAVSLGERATINCQASQNIYSYLSWYQQKPGKAPKLLIYRTSTLASGVPDRFSGSGSGTDFTLKISRVEAEDVGVYYCQSYYYSSGSSYGAFAFGQGTKVEIK VH 2: QVQLVESGGGLVQPGRSLRLSCAASGFTFSNAWMHWVRQAPGKGLEWVAQIKDKQNSYAAYYAESVKGRFTISRDDSKNSIYLQMNSLKTEDTAVYYCRYVHYTTYSGGFFSYGVDAWGQGTTVTVSS VL 2: DIVMTQSPLSLPVTPGEPASISCRSSQPLVHSNRNTYLHWYQQKPGQAPRLLIYKVSNRFSGVPDRFSGSGSGTDFTLKISRVEAEDVGVYYCGQGTQVPYTFGQGTKLEIK",,,,,,,11,0.0016,145000
"D30316AE03/AN395 (bispecific antibody, V domains shown, IgG-type anti-DLL3/CD3 bispecific made by Fab arm exchange) VH 1: EVQLVESGGGLVQPGGSLRLSCAASGFTFSNYGVSWVRQAPGQGLEWMGYIDIAFGRTYYASWVTGRITINPDTSKNQFSLQLNSVTPEDTAVYYCARVALVVAGVAYYGMDVWGQGTLVTVSS VL 1: DIVMTQSPDSLAVSLGERATINCQASQNIYSYLSWYQQKPGKAPKLLIYRTSTLASGVPDRFSGSGSGTDFTLKISRVEAEDVGVYYCQSYYYSSGSSYGAFAFGQGTKVEIK VH 2: QVQLVESGGGLVQPGRSLRLSCAASGFTFSNAWMHWVRQAPGKGLEWVAQIKDKANGYNAYYAPSVKGRFTISRDDSKNSIYLQMNSLKTEDTAVYYCRYVHYTTFGFGLSYGGVDAWGQGTTVTVSS VL 2: DIVMTQSPLSLPVTPGEPASISCRSSQPLVHSNRNTYLHWYQQKPGQAPRLLIYKVSNRFSGVPDRFSGSGSGTDFTLKISRVEAEDVGVYYCGQGTQVPYTFGQGTKLEIK",,,,,,,30.7,0.00743,242000

# Reference: US20240150465A1 (Chugai, published 2024)
